# Results as given in the DeepSol protein solubility set.
# Experiment: soluble on expression in E. coli; label from the status in PepcDB or PDB records
row,Sequence,soluble on expression in E. coli
1,MSSTLAKIAEIEAEMARTQKNKATAHHLGLLKARLAKLRRELITPKGGGGGGPGEGFDVAKTGDARIGFVGFPSVGKSTLLSNLAGVYSEVAAYEFTTLTTVPGVIRYKGAKIQLLDLPGIIEGAKDGKGRGRQVIAVARTCNLILIVLDVLKPLGHKKIIENELEGFGIRLNSKPPNIGFKKKDKGGINLTATCPQSELDAETVKSILAEYKIHNADVTLRSDATADDLIDVVEGNRVYIPCIYVLNKIDQISIEELDIIYKVPHCVPISAHHRWNFDDLLEKIWDYLKLVRIYTKPKGQLPDYTSPVVLPYSRTTVEDFCMKIHKNLIKEFKYALVWGLSVKHNPQKVGKDHTLEDEDVIQIVKK,soluble
2,MYVCLCHAITDTQIKNAVSQGDTSLADVKKRLGVADQCGKCARMAVQIIQNQLEIEPKYYEVA,soluble
3,GPGSMWTTSMALMSKRSMKYQTKLRHRFRNPSVLPLKQTKAQRDETIRSVLQVRNINPANQSSYRYVEQRLYSTGSRLDREGVKLNTTYALQGLGDLEPLRNSKSFGFSEREALKYDSLQQAAKYEAPPVPFTPLAARKLAEGKLWPSAPEPDGMLSKEVPYLRHRANMSPSAQTFADKIAYHLRRSLKACPAHIAEQMDFAQLIIEEVIASRRSKLVYIVWATVDPAARFAMEPQLHRLNHWVQRLIMERIRTRPNIPQIAWVWNGGRLERELPRELKEEMQAYASDNSSTLEMRVRYLKEMDTVNQRMRNIPWFMPYLWSKEEKAGKTRRMRKDLEEYEQRRLAAKKDQRESERDMSGRSVAPQIGAPPAYVR,not soluble
4,MRLRHKPYAMDRINEYSHIVIGNPEERAGSWKEVFGNEQPIHIEVGTGRGRFMYDMAKANPHINYIGIEKFTSVVVDALDKLIEEELPNLKLINKDAEDLTVFFAKGEIDRVYLNFSDPWPKKRHTKRRLTYKTFLRNYEEVLVEGGEIHFKTDNQGLFEYSLMSMAEYGMLLTYLSLDLHNSDFEGNIMTEYEEKFSSKGHRIYRVEAKYRTEPMQ,not soluble
5,MAIKNEIKNCLIMSVNPSYPLPLLCQYIPRYHPQMPTCPLFESKSIITPVFYFNCKRMDRSIDRRLCGHCHQSIGSEALVAMNRLWHPDHFTCSSCKRPIKQTFQAADNHAYCVQCFAQKYNPKCAGCMETLVDTCLLALDRHWHPRCFTCSSCNRPLPNGEFYLVDDKPYDLDCHWAKRLEKREHMERGER,not soluble
6,MSFDGFFLHHLTNELQEQIEKGRIQKVNQPFDHELVLTIRNNRRNYKLLLSAHPVFGRIQTTEANFQNPQNPNTFTMIMRKYLQGAVIETIQQIENDRILEIVVSNKNEIGDHIKATLVVEIMGKHSNIILIDKNEHKIIESIKHVGFSQNSYRTILPGSTYIAPPKTKAINPFDISDQTLFELLQTNDLSPKNLQQLLQGLGRDTALELSHCLKDNKLNDFRQFFSREYYPSLTEKSFSAVQFSSSHETFQSLGQLLDYYYQEKAEKDRIAQQASDLIHRVQSELEKNIKKLAKQQDELLATENAEEFRQKGELLTTYLSMVPNNQDVVVLDNYYTNQTIEISLDRALTPNQNAQRYFKKYQKLKEAVKHLKGIISDTENTITYLESVETSLNHASMEDINDIREELVETGFIKRRAHDKQHKRKK,not soluble
7,MHTMHIPSGDVLIPKPKLITEETDPLHIIKTRQKTHGRPVTIAGPMVRYSKLPFRQLCREYNVDIVYSPMILAREYVRNEHARISDLSTNNEDTPLIVQVGVNNVADLLKFVEMVAPYCDGIGINCGCPIKEQIREGIGCALIYNSDLLCSMVHAVKDKYGDKLRIETKIRIHEALDETVELCRKLCDAGVDWITIHGRTRRTRSSQPANLDAIKYIIENISDKNVPVIANGDCFKLSDLERITKYTGAHGVMAVRGLLSNPALFAGYTTCPWGCIEKFCYWALEFGGLPFQLAQHHLYCMLENMELKKSLLKKMMNLKNYISLIDWFNKTFEFKRYGEDGFGMGVEIPYKANSCVQRSASVVERQE,soluble
8,MGSDKIHHHHHHMIKLSYLTSYITCPRLCYFRVHVGEKRFTELTAVREIYLSLKQGFDLDWAKKRAKALHGAFDEEAFRSAANKFIFPQIDCKSVEVDATIKSKSLGLLVSVDEIVECDGELLPLFLGLNPPENGVWFKDMVKAGAAALAGNYSKALIYYGYTGDLRPVEVTFSLKKKVIKLIERVKLIQRGFLPERKESRYCNYCSFSEDCKSRAETFASKFL,not soluble
9,MGSDKIHHHHHHMKTMRKILEIDEERCNGCGLCVLDCAEGAIAIVDGKAKIVSDSFCDGLGACIGSCPQDALHIIEREAVPFDEEAAMEHVRSQGGTPEANHGHGHGAGTPHRHGQSAEHGGHGRIPGHGGCPGAAMRRFDSAESPAFAVAEGTVKGPGHWPLKIRLVPPTAPFLKGADVLVAADCAAAASPIFHSHFAAGKVVLIGCPKFDDTEAYAERLADILRVSGIASLTVLRMEVPCCRGLSAAAEKARVLSGTSLVLKEVIMTCAGGPAAPAPLSSL,not soluble
10,MHKLLYTCNLRCRMCPFWRRKDEKLLSLEEEVLMLKSLEKAGVLFMGFEGGEPLLRRDLEDILEESYKRFYTSLVTNGWLLKDRAKSISNYLDYLFVSIDGIGEVHDKIRGISGAFERAVEGIKEARKYLPVAISFTITKENMDQVKDVIELA,soluble
11,GAAEKTVVNISKVDGMPWFNRMGEGVVQAGKEFNLNASQVGPSSTDAPQQVKIIEDLIARKVDAITIVPNDANVLEPVFKKARDAGIVVLTNESPGQPSANWDVEIIDNEKFAAEYVEHMAKRMGGKGGYVIYVGSLTVPQHNLWADLLVKYQKEHYPDMHEVTRRMPVAESVDDSRRTTLDLMKTYPDLKAVVSFGSNGPIGAGRAVKEKRAKNKVAVYGMMIPSQAASLIKSGDITEGITYDPATAGYALAAVASTLLNGKTIEPGFELKELGKAEVDSDKHIIRFHKVLLVNKDNIDSLY,soluble
12,MPDDEKIKLRYSPEESARLIKEEARRLGFSACGFAEAQALPPSVVGTYEKFLSEGRHGEMDYLERNRELRYSPAELLPGTRTVISVALNYYPKIKQPASAPQIAYYAYGKDYHKVVKRLLDKLLDYIRREVCPSVSGRSFSDSAPIAERYWACRAGIGWVGRSGMLILPRGGTFFFLGELLVDIDLPPDAPMPSRCGACRNCIESCPTGAISEEGMDSRLCVSYLTIEHEGEIPPELVGKLGNRFYGCDSCQLCCPWNRYAHPSEVEAFVPREALFTFDRDDLVSLDEEKYLHFFAGSPMKRAGLDGLRRNARALEQGDKKEDEQPTDEDG,not soluble
13,MSLIYGFIRDHSNEFAVEKMCQVLNVSRSGYYSWLNRKPGKRELTNKKLKLKIAEIYWQTRGRCGSPRIHKQLKKEGYHYNIKRIERLMRIMGLKAIQKRKFKRTTNSDNNLPLKNNLLKRNFSVTQPDKVWVSDITYIPTKEGWLYLSVVIDLYSRKVVGWSMDNHMTKRLVIDALEMAVLNRNPSRGLIFHSDRGSQYASHDFQKTLWKYGIISSMSRKGDCWDNAVAESFFATLKTELIFHNKYQSRAQAKRDIFEYIEIFYNRIRLHSSLDYKSPEDYEKERKTSKEGHHHHHH,not soluble
14,MGSDKIHHHHHHACILFVCFLYTNNEIGVTSSKLEADIRSSQKIKDDWTVDGSVSSTMAAYISYPQDLSDHSFSVYVNRPGLSFGYFFRGGGTLSGIQRGIVEFTVEGYNERAFISMNQQQVQQLEIDDGNTIQVVDIDRNKPFAIVLPINAGNITFYDVNRNTVEYWNNPL,not soluble
15,MSLADKRKHRFSVRYWLWRHTSLKRVAFCGRVAASAVASVGVRCSDGRAGFAGLQSCGSVWACPVCNAKIMARRGLELGAAVETWTKHGGRVAFMTFTVRHSRKDSLTAVWDGVASGWRRVTSGKGWTSDQLRHGVEGFVRVVEVTHGRNGWHVHLHVLVFLVGDFGDALALHRSMFGRWERGVLAAGLGTPLARAQDVQQMSAATGLDHLARYLSKAQFQGKIGHELTNSQSKTARSALSTRSTWEVLGDAANGLAKEVGLWFEWEKGSRGRRQIGWSAGLRDRLGLMVEESDDVIAAEEVGSVADTVALITGDGWRRLVGQQKLYECLRSCELGGQAGLARWLQEHGIEHELVEVDEGHHHHHH,soluble
16,MQGNTMYKFEVFKDKAGEFRFRFRASNGEIMFSSEGYKAKASVLNAIESIKKNSPGAETVDQTTATV,soluble
17,DVTGLATGFRDLDKITTGLHPDQLIILAARPAVGKTAFVLNIAQNVGTKMNRPVAIFSLEMGAESLVDRMLASEGMVDAHNLRTGQLTEQDWQNITLAQGTLADAPIYIDDTPGIKVTEIRARARKLDQELEKGLGLIVIDYLQLITGTRPENRQQEVSDISRQLKILAKELGVPVIALSQLSRGVEQRQDKRPVLSDI,not soluble
18,MSNRVPTNILTGFLGVGKTTTILNLLKNKPENENWAVLVNEFGEIGIDGALMTDQGALIKEVPGGCMCCTAGVPMSVGITALLRQKPDRLLIEPTGLGHPKQVIATLTSEQYLPYVDLKATIALVDPRNLSDEKYTSNQNFVDQLDSADVVIGSKVDLCSSHDIDVFNDWVTDQTPAKVFSKLIHNGELPIEVLDIERVHGSASSHIETHHHEHAHQEPQFQLPPGEAFIRKENKGQGYFSCGWLFGAEYKFDFDKLFSMLSDLTAERVKAVVNTNQGCYAFNVANRVVSVNEISLEGFESRLEVIDSQLLPWDELEQILLQLAGVEGLEHHHHHH,soluble
19,MYTHNSSDSIDCNIQSLYRGPQPGRYVRPTGKAVKQVKMEPYSPYSWGDKPYHSLNYYLKQTFGEKIYKLALDGAMTCPNRDGTLGTGGCIFCSGGGSGDFAEPQHASVTEQIEAAKARVSAKIKNGRYIAYFQSYTNTYAPVDYLEALFREAVSHPDIAALSIGTRPDCLPPQVIRLLKEINKEKPVWIELGLQTIHESTAELIRRGYELPCFIDAVRRLKEAGLTVIVHVILGLPGETEDMMLETIRFLANHTPPVDGIKLQLLHVLKGTKLAALYEAAPFPVMTMEEYIDLILKCIRLLPPHIVIHRLSGDGPKKLLIAPEWSGNKRLFLNSLTRALRETGAYQGEWHRPRQP,not soluble
20,MNGTRNWCTLVDVHPEDRAAGSVDILRLTLQGEPTGDELEHIAQKAGRKTYAMVSSHSAGHSLASELVESHDGHEEIIKVYLKGRSGDKMIHEKNINQLKSEVQYIQEARNCLQKLREDISSKLDRNLGDSLHRQEIQVVLEKPNGFSQSPTALYSSPPEVDTCINEDVESLRKTVQDLLAKLQEAKRQHQSDCVAFEVTLSRYQREAEQSNVALQREEDRVEQKEAEVGELQRRLLGMETEHQALLAKVREGEVALEELRSNNADCQAEREKAATLEKEVAGLREKIHHLDDMLKSQQRKVRQMIEQLQNSKAVIQSKDATIQELKEKIAYLEAENLEMHDRMEHLIEKQISHGNFSTQARAKTENPGSIRISKPPSPKPMPVIRVVET,soluble
21,METKCELNNTKKVANAFGLNEEDTNLLINAVDLDIKNNMQEISSELQQSEQSKQKQLGTTLQNLAKQNRIIK,not soluble
22,MEDEDVPVCWICNEELGNERFRACGCTGELENVHRSCLSTWLTISRNTACQICGVVYNTR,soluble
23,MITVNTLQKMKAAGEKIAMLTAYESSFAALMDDAGVDVLLVGDSLGMAVQGRQSTLPVSLRDMCYHTECVARGAKNAMIVSDLPFGAYQQSKEQAFAAAAELMAAGAHMVKLEGGVWMAETTEFLQMRGIPVCAHIGLTPQSVFAFGGYKVQGRGGKAQALLNDAKAHDDAGAAVVLMECVPAELAKKVTESVSCPTIGIGAGVDCDGQVLVMHDMLGIFPGKTAKFVKNFMQGQSSIQAAVRAYVAEVKAKTFPAAEHIFAD,not soluble
